Data as given in publication doi:10.1101/2021.03.22.436490.

Key:
[1] = molecular target: Vibrio cholerae Chromosome 2 ParA (ParA2vc) (Vibrio cholerae); experiment: crystal structure
[2] = molecular target: Vibrio cholerae Chromosome 2 ParA (ParA2vc) (Vibrio cholerae); experiment: crystal structure; remark: listed apart in the source
[3] = molecular target: Vibrio cholerae Chromosome 2 ParA (ParA2vc) (Vibrio cholerae); experiment: negative-stain EM

Measured: stoichiometry N

Vibrio cholerae Chromosome 2 ParA (ParA2vc) (natural protein)
2: all assays above
